Source: US20230212587A1, “Mutant Hydroxyphenylpyruvate Dioxygenase Polypeptide, Encoding Gene Thereof and Use Therefor” (Beijing Dabeinong Biotechnology Co., Ltd., priority 2019, published 2023)

System: Arabidopsis thaliana T1 plants
Experiment: Topramezone tolerance of transgenic Arabidopsis thaliana T1 plants (pesticide damage grade by bleached leaf area, score, resistance evaluation)
Assay type: in vivo
Design: score: scale not given here
Conditions: for Classification and statistics of the grade of pesticide damage Grade 0 / Classification and statistics of the grade of pesticide damage Grade 1 / Classification and statistics of the grade of pesticide damage Grade 2 / Classification and statistics of the grade of pesticide damage Grade 3 / Classification and statistics of pesticide damage grade Grade 0 / Classification and statistics of pesticide damage grade Grade 1 / Classification and statistics of pesticide damage grade Grade 2 / Classification and statistics of pesticide damage grade Grade 3: number of plants (of 16) in this grade; for Classification and statistics of the grade of pesticide damage Grade 0 / Classification and statistics of the grade of pesticide damage Grade 1 / Classification and statistics of the grade of pesticide damage Grade 2 / Classification and statistics of the grade of pesticide damage Grade 3 / Scores / Resistance evaluation / Classification and statistics of pesticide damage grade Grade 0 / Classification and statistics of pesticide damage grade Grade 1 / Classification and statistics of pesticide damage grade Grade 2 / Classification and statistics of pesticide damage grade Grade 3: 7 DAT
From the text: The Arabidopsisthaliana T1 plants into which the AsHPPDm-F372A-02 nucleotide sequence was introduced, Arabidopsis thaliana T1 plants into which the AsHPPD-02 nucleotide sequence was introduced and wild-type Arabidopsisthaliana plants (18 days after sowing) were sprayed with topramezone at four different concentrations, i.e., 25 g ai/ha (one-fold field concentration, 1×), 50 g ai/ha (two-fold field concentration, 2×), 100 g ai/ha (four-fold field concentration, 4×) and 0 g ai/ha (water, 0×) to determine the tolerance of Arabidopsisthaliana to the herbicide. The degree of damage caused by the herbicide was measured for each plant according to the proportion of bleached leaf area (the proportion of bleached leaf area=bleached leaf area/total leaf area×100%) 7 days after spraying (7 DAT): the case where there is basically no bleached phenotype is defined as grade 0, the case where the proportion of bleached leaf area is less than 50% is defined as grade 1,the case where the proportion of bleached leaf area is more than 50% is defined as grade 2, and the case where the proportion of bleached leaf area is 100% grade is defined as grade 3.
(§1) According to the method as described above in point 6 of Example 1, the aforementioned Arabidopsisthaliana T1 plants and wild-type Arabidopsisthaliana plants (18 days after sowing) were sprayed with topramezone at three different concentrations respectively, i.e., 25 g ai/ha (one-fold field concentration, 1×), 100 g ai/ha (four-fold field concentration, 4×) and 0 g ai/ha(water, 0×) to detect the tolerance of Arabidopsisthaliana to the herbicide.
as §1, with “1x),” for “1×),”, “4x)” for “4×)”, “ai/ha (water, 0x)” for “ai/ha(water, 0×)”
According to the method as described above in point 6 of Example 1, the above-mentioned Arabidopsisthaliana T1 plants, Arabidopsisthaliana T1 plants into which the AsHPPD-02 nucleotide sequence was introduced, Arabidopsisthaliana T1 plants into which the PfHPPD-02 nucleotide sequence was introduced, and wild-type Arabidopsisthaliana plants (18 days after sowing) were sprayed with topramezone at four different concentrations respectively, that is, 25 g ai/ha (one-fold field concentration, 1x), 50 g ai/ha (two-fold field concentration, 2x), 100 g ai/ha (four-fold field concentration, 4x) and 0 g ai/ha (water, Ox) to detect the herbicide tolerance of Arabidopsisthaliana.
According to the method as described in point 6 of Example 1, the above-mentioned Arabidopsisthaliana T1 plants and wild-type Arabidopsisthaliana plants (18 days after sowing) were sprayed with topramezone at two different concentrations respectively, that is, 25 g ai/ha (one-fold field concentration, 1x) and 100 g ai/ha (four-fold field concentration, 4x) to detect the herbicide tolerance of Arabidopsisthaliana,. […]

[1] = non-372 position mutants, number of plants (of 20) in this grade, topramezone 25 g ai/ha (1x)
[2] = non-372 position mutants, number of plants (of 20) in this grade, topramezone 100 g ai/ha (4x)
[3] = topramezone 25 g ai/ha (1x), HPPD from Avena sativa source
[4] = topramezone 25 g ai/ha (1x), number of plants, HPPD from Avena sativa source
[5] = topramezone 25 g ai/ha, mutation combination, Table 8
[6] = topramezone 50 g ai/ha (2x), HPPD from Avena sativa source
[7] = topramezone 50 g ai/ha (2x), number of plants, HPPD from Avena sativa source
[8] = topramezone 100 g ai/ha (4x), HPPD from Avena sativa source
[9] = topramezone 100 g ai/ha (4x), number of plants, HPPD from Avena sativa source
[10] = topramezone 100 g ai/ha, mutation combination, Table 8
[11] = HPPDs from different species, topramezone 25 g ai/ha (1x)
[12] = HPPDs from different species, topramezone 100 g ai/ha (4x)

B1: AsHPPD-02: Avena sativa native HPPD, SEQ ID NO: 1; gene SEQ ID NO: 3 (protein, listed as Avena sativa)
chain: MPPTPATATGAAAAAVTPEHAARSFPRVVRVNPRSDRFPVLSFHHVELWCADAASAAGRFSFALGAPLAARSDLSTGNSAHASLLLRSGALAFLFTAPYAPPPQEAATAAATASIPSFSADAARTFAAAHGLAVRSVGVRVADAAEAFRVSVAGGARPAFAPADLGHGFGLAEVELYGDVVLRFVSYPDETDLPFLPGFERVSSPGAVDYGLTRFDHVVGNVPEMAPVIDYMKGFLGFHEFAEFTAEDVGTTESGLNSVVLANNSEAVLLPLNEPVHGTKRRSQIQTYLEYHGGPGVQHIALASNDVLRTLREMRARTPMGGFEFMAPPQAKYYEGVRRIAGDVLSEEQIKECQELGVLVDRDDQGVLLQIFTKPVGDRPTFFLEMIQRIGCMEKDEVGQEYQKGGCGGFGKGNFSELFKSIEDYEKSLEVKQSVVAQKS
modifications: AsHPPD Amido Acid Sequence
- tolerance to topramezone, in words (Arabidopsis thaliana T1 plants sprayed with topramezone): no or relatively low tolerance
- Grade 0 [1]: 0
- Grade 1 [1]: 5
- Grade 2 [1]: 13
- Grade 3 [1]: 2
- Grade 0 [2]: 0
- Grade 1 [2]: 0
- Grade 2 [2]: 4
- Grade 3 [2]: 16
- score (non-372 position mutants, score for pesticide damage 0-100, topramezone 25 g ai/ha (1x)): 62
- score (non-372 position mutants, score for pesticide damage 0-100, topramezone 100 g ai/ha (4x)): 93
- Resistance Grade (non-372 position mutants, topramezone 25 g ai/ha (1x)): poorly resistant (poorly resistant plants (scores 34-67))
- Resistance Grade (non-372 position mutants, topramezone 100 g ai/ha (4x)): non-resistant (non-resistant plants (scores 68-100))
- Classification and statistics of the grade of pesticide damage Grade 0 (topramezone 25 g ai/ha (1x)): 0
- Classification and statistics of the grade of pesticide damage Grade 1 (topramezone 25 g ai/ha (1x)): 4
- Classification and statistics of the grade of pesticide damage Grade 2 (topramezone 25 g ai/ha (1x)): 12
- Classification and statistics of the grade of pesticide damage Grade 3 (topramezone 25 g ai/ha (1x)): 0
- Classification and statistics of the grade of pesticide damage Grade 0 (topramezone 50 g ai/ha (2x)): 0
- Classification and statistics of the grade of pesticide damage Grade 1 (topramezone 50 g ai/ha (2x)): 0
- Classification and statistics of the grade of pesticide damage Grade 2 (topramezone 50 g ai/ha (2x)): 6
- Classification and statistics of the grade of pesticide damage Grade 3 (topramezone 50 g ai/ha (2x)): 10
- Classification and statistics of the grade of pesticide damage Grade 0 (topramezone 100 g ai/ha (4x)): 0
- Classification and statistics of the grade of pesticide damage Grade 1 (topramezone 100 g ai/ha (4x)): 0
- Classification and statistics of the grade of pesticide damage Grade 2 (topramezone 100 g ai/ha (4x)): 4
- Classification and statistics of the grade of pesticide damage Grade 3 (topramezone 100 g ai/ha (4x)): 12
- tolerance to topramezone, in words (saturation mutation of HPPD from Avena sativa source (label F372X = AsHPPDm-F372X), topramezone 25, 50, 100 g ai/ha): no or low tolerance
- Scores (score for pesticide damage 0-100, topramezone 25 g ai/ha (1x)): 58
- Scores (score for pesticide damage 0-100, topramezone 50 g ai/ha (2x)): 88
- Scores (score for pesticide damage 0-100, topramezone 100 g ai/ha (4x)): 92
- Resistance evaluation (topramezone 25 g ai/ha (1x)): poorly resistant (poorly resistant plants (scores 34-67))
- Resistance Grade [3]: Poorly resistant
- score [3]: 57
- Grade 0 [4]: 2
- Grade 1 [4]: 2
- Grade 2 [4]: 16
- Grade 3 [4]: 0
- Grade 0 (number of plants) [5]: 2
- Grade 1 (number of plants) [5]: 2
- Grade 2 (number of plants) [5]: 16
- Grade 3 (number of plants) [5]: 0
- Resistance Grade [5]: Poorly resistant
- score [5]: 57
- Resistance evaluation (topramezone 50 g ai/ha (2x)): non-resistant (non-resistant plants (scores 68-100))
- Resistance Grade [6]: Non-resistant
- score [6]: 87
- Grade 0 [7]: 0
- Grade 1 [7]: 2
- Grade 2 [7]: 4
- Grade 3 [7]: 14
- Resistance evaluation (topramezone 100 g ai/ha (4x)): non-resistant (non-resistant plants (scores 68-100))
- Resistance Grade [8]: Non-resistant
- score [8]: 93
- Grade 0 [9]: 0
- Grade 1 [9]: 0
- Grade 2 [9]: 4
- Grade 3 [9]: 16
- Grade 0 (number of plants) [10]: 0
- Grade 1 (number of plants) [10]: 0
- Grade 2 (number of plants) [10]: 4
- Grade 3 (number of plants) [10]: 16
- Resistance Grade [10]: Non-resistant
- score [10]: 93

B2: PfHPPD-02: native Pseudomonas fluorescens HPPD, SEQ ID NO: 27 (protein, listed as Pseudomonas fluorescens)
chain: MADLYENPMGLMGFEFIEFASPTPGTLEPIFEIMGFTKVATHRSKNVHLYRQGEINLILNNEPNSIASYFAAEHGPSVCGMAFRVKDSQKAYNRALELGAQPIHIDTGPMELNLPAIKGIGGAPLYLIDRFGEGSSIYDIDFVYLEGVERNPVGAGLKVIDHLTHNVYRGRMVYWANFYEKLFNFREARYFDIKGEYTGLTSKAMSAPDGMIRIPLNEESSKGAGQIEEFLMQFNGEGIQHVAFLTDDLVKTWDALKKIGMRFMTAPPDTYYEMLEGRLPDHGEPVDQLQARGILLDGSSVEGDKRLLLQIFSETLMGPVFFEFIQRKGDDGFGEGNFKALFESIERDQVRRGVLTAD
modifications: PfHPPD Amino Acid Sequence
- Classification and statistics of pesticide damage grade Grade 0 [11]: 0
- Classification and statistics of pesticide damage grade Grade 1 [11]: 0
- Classification and statistics of pesticide damage grade Grade 2 [11]: 0
- Classification and statistics of pesticide damage grade Grade 3 [11]: 16
- Classification and statistics of pesticide damage grade Grade 0 [12]: 0
- Classification and statistics of pesticide damage grade Grade 1 [12]: 0
- Classification and statistics of pesticide damage grade Grade 2 [12]: 0
- Classification and statistics of pesticide damage grade Grade 3 [12]: 16
- Scores (HPPDs from different species, score for pesticide damage 0-100, topramezone 25 g ai/ha (1x)): 100
- Scores (HPPDs from different species, score for pesticide damage 0-100, topramezone 100 g ai/ha (4x)): 100
- Resistance evaluation [11]: non-resistant (non-resistant plants (scores 68-100))
- Resistance evaluation [12]: non-resistant (non-resistant plants (scores 68-100))
- tolerance to topramezone, in words (saturation mutation of HPPD from Pseudomonas fluorescens source (label F372X = PfHPPDm-F372X), topramezone 25, 50, 100 g ai/ha): no tolerance
- Grade 0 (number of plants) [5]: 0
- Grade 1 (number of plants) [5]: 0
- Grade 2 (number of plants) [5]: 0
- Grade 3 (number of plants) [5]: 20
- Resistance Grade [5]: Non-resistant
- score [5]: 100
- Grade 0 (number of plants) [10]: 0
- Grade 1 (number of plants) [10]: 0
- Grade 2 (number of plants) [10]: 0
- Grade 3 (number of plants) [10]: 20
- Resistance Grade [10]: Non-resistant
- score [10]: 100
